Assay results reported in US20240131162A1 (MacroGenics, published 2024).
Residue numbers refer to the chain shown, from its start. Names and notes keep the numbering of the source.

B1: Fc mutant 12: F243L R292P Y300L (other, UniProt P01857-1 104-330, looked up)
chain: DKTHTCPPCPAPELLGGPSVFLLPPKPKDTLMISRTPEVTCVVVDVSHEDPEVKFNWYVDGVEVHNAKTKPPEEQYNSTLRVVSVLTVLHQDWLNGKEYKCKVSNKALPAPIEKTISKAKGQPREPQVYTLPPSRDELTKNQVSLTCLVKGFYPSDIAVEWESNGQPENNYKTTPPVLDSDGSFFLYSKLTVDKSRWQQGNVFSCSVMHEALHNHYTQKSLSLSPGK
notes: domain: Fc
B2: Fc mutant 17: F243L R292P V305I P396L (other, UniProt P01857-1 104-330, looked up)
chain: B1 chain with L80Y, V85I, P176L
notes: domain: Fc
B3: Fc variant D270E P396L G316D R416G (other, UniProt P01857-1 104-330, looked up)
chain: B1 chain with L23F, D50E, P72R, L80Y, G96D, P176L, R196G
notes: domain: Fc; also called D270E G316D P396L R416G
B4: Fc mutant 18: F243L R292P Y300L V305I P396L (other, UniProt P01857-1 104-330, looked up)
chain: B1 chain with V85I, P176L
notes: domain: Fc; Same substitutions as the Fc of ch4D5-FcMT1
B5: Fc variant F243L D270E K392T P396L (other, UniProt P01857-1 104-330, looked up)
chain: B1 chain with D50E, P72R, L80Y, K172T, P176L
notes: domain: Fc
B6: Fc variant R255L D270E P396L (other, UniProt P01857-1 104-330, looked up)
chain: B1 chain with L23F, R35L, D50E, P72R, L80Y, P176L
notes: domain: Fc
B7: Fc mutant 14: F243L R292P P396L (other, UniProt P01857-1 104-330, looked up)
chain: B1 chain with L80Y, P176L
notes: domain: Fc
B8: Fc variant F243L P247L N421K (other, UniProt P01857-1 104-330, looked up)
chain: B1 chain with P27L, P72R, L80Y, N201K
notes: domain: Fc
B9: Fc variant R255L D270E R292G P396L (other, UniProt P01857-1 104-330, looked up)
chain: B1 chain with L23F, R35L, D50E, P72G, L80Y, P176L
notes: domain: Fc
B10: Fc variant F243L P247L D270E N421K (other, UniProt P01857-1 104-330, looked up)
chain: B1 chain with P27L, D50E, P72R, L80Y, N201K
notes: domain: Fc
B11: Fc variant F243L R255L D270E P396L (other, UniProt P01857-1 104-330, looked up)
chain: B1 chain with R35L, D50E, P72R, L80Y, P176L
notes: domain: Fc
B12: Fc mutant 15: R292P V305I P396L (other, UniProt P01857-1 104-330, looked up)
chain: B1 chain with L23F, L80Y, V85I, P176L
notes: domain: Fc
B13: Fc variant D270E G316D R416G (other, UniProt P01857-1 104-330, looked up)
chain: B1 chain with L23F, D50E, P72R, L80Y, G96D, R196G
notes: domain: Fc
B14: Fc variant R255L D270E Y300L P396L (other, UniProt P01857-1 104-330, looked up)
chain: B1 chain with L23F, R35L, D50E, P72R, P176L
notes: domain: Fc
B15: Fc variant F243I R292P Y300L V305I P396L (other, UniProt P01857-1 104-330, looked up)
chain: B1 chain with L23I, V85I, P176L
notes: domain: Fc; 'F243I' as printed
B16: Fc variant D270E P396L Q419H (other, UniProt P01857-1 104-330, looked up)
chain: B1 chain with L23F, D50E, P72R, L80Y, P176L, Q199H
notes: domain: Fc
B17: Fc variant D270E K392T P396L (other, UniProt P01857-1 104-330, looked up)
chain: B1 chain with L23F, D50E, P72R, L80Y, K172T, P176L
notes: domain: Fc
B18: Fc variant F243L D270E G316D R416G (other, UniProt P01857-1 104-330, looked up)
chain: B1 chain with D50E, P72R, L80Y, G96D, R196G
notes: domain: Fc
B19: Fc mutant 16: F243L R292P Y300L P396L (other, UniProt P01857-1 104-330, looked up)
chain: B1 chain with P176L
notes: domain: Fc
B20: Fc variant P247L D270E N421K (other, UniProt P01857-1 104-330, looked up)
chain: B1 chain with L23F, P27L, D50E, P72R, L80Y, N201K
notes: domain: Fc
B21: Fc variant F243L D270E P396L Q419H (other, UniProt P01857-1 104-330, looked up)
chain: B1 chain with D50E, P72R, L80Y, P176L, Q199H
notes: domain: Fc
B22: Fc mutant 13: F243L R292P V305I (other, UniProt P01857-1 104-330, looked up)
chain: B1 chain with L80Y, V85I
notes: domain: Fc

Experiments:
CD16A V158 [1] = molecular target: T1, CD16A V158 (human, UniProt P08637 17-208, limits assumed); assay: SPR (BIAcore), koff compared with wild-type Fc
T1 construct: construct not described
T1 sequence (P08637 17-208 F176V limits assumed): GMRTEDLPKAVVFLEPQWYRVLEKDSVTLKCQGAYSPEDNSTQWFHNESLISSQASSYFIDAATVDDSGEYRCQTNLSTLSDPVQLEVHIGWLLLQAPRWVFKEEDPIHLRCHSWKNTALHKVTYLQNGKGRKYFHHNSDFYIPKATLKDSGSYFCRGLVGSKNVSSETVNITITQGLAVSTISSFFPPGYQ

CD32A^H = molecular target: T2, CD32A^H (UniProt P12318 34-217, limits assumed); assay: SPR (BIAcore), koff compared with wild-type Fc
T2 construct: also called FcγRIIA
T2 sequence (looked up): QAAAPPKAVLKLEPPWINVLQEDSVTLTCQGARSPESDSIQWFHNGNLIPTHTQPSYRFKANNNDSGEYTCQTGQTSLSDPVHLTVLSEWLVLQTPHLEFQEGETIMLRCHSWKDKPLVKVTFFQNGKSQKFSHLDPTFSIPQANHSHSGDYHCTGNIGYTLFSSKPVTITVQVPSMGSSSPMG

CD32B (FcγRII-B) [2] = molecular target: T3, CD32B (FcγRII-B) (UniProt P31994 43-217, limits assumed); assay: SPR (BIAcore), koff compared with wild-type Fc
T3 sequence (looked up): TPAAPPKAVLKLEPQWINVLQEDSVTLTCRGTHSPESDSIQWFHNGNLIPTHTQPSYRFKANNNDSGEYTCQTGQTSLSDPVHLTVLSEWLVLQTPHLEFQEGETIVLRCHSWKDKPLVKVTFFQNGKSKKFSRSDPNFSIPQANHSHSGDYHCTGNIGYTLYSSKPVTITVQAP

CD16A F158 [3] = molecular target: T4, CD16A F158 (human, UniProt P08637 17-208, limits assumed); assay: SPR (BIAcore), koff compared with wild-type Fc
T4 construct: construct not described
T4 sequence (P08637 17-208 limits assumed): as the sequence (P08637 17-208 F176V limits assumed) above, with V160F counted along it

CD16A V158 [4] = molecular target: T1, CD16A V158; assay: method not stated at Table 3
CD32B (FcγRII-B) [5] = molecular target: T3, CD32B (FcγRII-B); assay: method not stated at Table 3
CD16A F158 [6] = molecular target: T4, CD16A F158; assay: method not stated at Table 3

Binder	WT koff/mutant koff (CD16A V158 [1]) [ratio]	WT koff/mutant koff (CD32A^H) [ratio]	WT koff/mutant koff (CD32B (FcγRII-B) [2]) [ratio]	WT koff/mutant koff (CD16A F158 [3]) [ratio]	binding relative to wild-type Fc (CD16A V158 [4]) [fold]	binding relative to wild-type Fc (CD32B (FcγRII-B) [5]) [fold]	binding relative to wild-type Fc (CD16A F158 [6]) [fold]
B1	7.4	1	0.6	4.6	–	–	–
B2	4	0.8	0.4	2.3	5.37	0.4	2.53
B3	–	–	–	–	1.22	1.07	0.94
B4	10.1	3.2	1.4	8.3	10.1	1.38	8.25
B5	–	–	–	–	3.16	0.44	2.44
B6	–	–	–	–	1.34	0.87	1.65
B7	6.3	1.4	0.4	–	–	–	–
B8	–	–	–	–	1.89	0.17	1.71
B9	–	–	–	–	–	0.65	–
B10	–	–	–	–	2.3	0.32	3.45
B11	–	–	–	–	1.75	0.38	1.64
B12	1.9	1.5	0.9	1.9	1.85	0.92	1.9
B13	–	–	–	–	2.18	0.78	2.49
B14	–	–	–	–	1.52	0.87	1.74
B15	–	–	–	–	–	1.05	3.12
B16	–	–	–	–	1.64	0.68	–
B17	–	–	–	–	1.81	0.79	2.28
B18	–	–	–	–	1.5	0.2	1.34
B19	10.1	1.7	1.1	5.6	10.1	1.07	5.62
B20	–	–	–	–	1.89	0.58	2.46
B21	–	–	–	–	1.46	0.26	1.15
B22	2.6	0.2	0.1	1.4	2.56	–	1.43
